From article PMC11834968 (RSC Chemical Biology, 2025)

B1: SUMO-I3 (single domain antibody I3 fused to an N-terminal 6X His-SUMO-FLAG tag) (VHH)
VHH: EVQLVESGGGLVQPGGSLRLSCAASGFTFSSYAMSWVRQAPGKGLEWVSAINSGGGSTSYADSVKGRFTISRDNAKNTLYLQMNSLKPEDTAVYYCAKARTGWSLAVPSFGSWGQGTQVTVSS
B2: MBP-I3 (single domain antibody I3 with N-terminal MBP fusion and C-terminal 6X His-tag) (VHH)
VHH: EVQLVESGGGLVQPGGSLRLSCAASGFTFSSYAMSWVRQAPGKGLEWVSAINSGGGSTSYADSVKGRFTISRDNAKNTLYLQMNSLKPEDTAVYYCAKARTGWSLAVPSFGSWGQGTQVTVSS

What was measured:
[1] = target: Human recombinant fibroblast activation protein alpha (human, UniProt Q12884, glycosylated (sites not given)); assay: cross-linking + other: mass photometry
[2] = target: Biotinylated dipeptidyl peptidase IV (DPP4) (Homo sapiens, UniProt P27487, biotin (site not given)); assay: BLI
Chain of Biotinylated dipeptidyl peptidase IV (DPP4) (P27487 39-766): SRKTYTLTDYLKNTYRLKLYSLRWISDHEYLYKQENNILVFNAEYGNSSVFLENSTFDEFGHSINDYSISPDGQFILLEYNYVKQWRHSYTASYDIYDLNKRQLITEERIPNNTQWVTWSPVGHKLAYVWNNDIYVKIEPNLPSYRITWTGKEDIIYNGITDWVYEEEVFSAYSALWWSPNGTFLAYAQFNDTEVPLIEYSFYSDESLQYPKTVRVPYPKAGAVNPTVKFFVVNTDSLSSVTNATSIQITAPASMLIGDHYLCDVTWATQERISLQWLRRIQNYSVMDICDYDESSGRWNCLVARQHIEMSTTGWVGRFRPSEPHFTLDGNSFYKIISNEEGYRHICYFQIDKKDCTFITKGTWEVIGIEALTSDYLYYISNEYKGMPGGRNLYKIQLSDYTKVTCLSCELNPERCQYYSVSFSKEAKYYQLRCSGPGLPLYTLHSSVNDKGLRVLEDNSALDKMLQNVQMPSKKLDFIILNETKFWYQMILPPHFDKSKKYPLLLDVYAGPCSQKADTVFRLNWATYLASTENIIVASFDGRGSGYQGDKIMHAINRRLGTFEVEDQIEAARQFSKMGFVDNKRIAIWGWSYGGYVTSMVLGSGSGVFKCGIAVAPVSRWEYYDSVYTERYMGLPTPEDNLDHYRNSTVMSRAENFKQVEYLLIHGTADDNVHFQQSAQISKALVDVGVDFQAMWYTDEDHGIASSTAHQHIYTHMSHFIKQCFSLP

Chain of Human recombinant fibroblast activation protein alpha (Q12884 27-760): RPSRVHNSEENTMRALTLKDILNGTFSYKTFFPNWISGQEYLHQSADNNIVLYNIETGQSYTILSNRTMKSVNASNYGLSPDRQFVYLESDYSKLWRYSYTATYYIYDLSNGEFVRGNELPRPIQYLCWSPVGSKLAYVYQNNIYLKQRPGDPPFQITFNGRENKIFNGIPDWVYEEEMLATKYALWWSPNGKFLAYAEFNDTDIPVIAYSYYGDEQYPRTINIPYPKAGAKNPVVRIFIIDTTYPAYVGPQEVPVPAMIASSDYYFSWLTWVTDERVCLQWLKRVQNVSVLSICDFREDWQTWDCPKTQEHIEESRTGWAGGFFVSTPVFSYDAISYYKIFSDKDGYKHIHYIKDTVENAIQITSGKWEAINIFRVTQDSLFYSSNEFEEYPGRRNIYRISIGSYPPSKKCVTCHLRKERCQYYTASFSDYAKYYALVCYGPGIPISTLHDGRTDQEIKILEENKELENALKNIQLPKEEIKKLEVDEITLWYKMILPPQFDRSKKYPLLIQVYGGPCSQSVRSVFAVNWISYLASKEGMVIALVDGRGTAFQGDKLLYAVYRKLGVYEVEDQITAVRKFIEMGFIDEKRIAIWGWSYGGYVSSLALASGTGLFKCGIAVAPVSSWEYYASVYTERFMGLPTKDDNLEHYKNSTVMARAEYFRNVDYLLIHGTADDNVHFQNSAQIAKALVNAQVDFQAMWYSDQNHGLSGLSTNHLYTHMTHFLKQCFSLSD

stoichiometry N [1]	binding result [2]	Binder
1		B1
	no binding	B2
